Assay results: patent publication US20260217822A1 (SANA BIOTECHNOLOGY, published 2026)
Read-outs that look alike come from different tables or passages of the source.

T1: recombinant CD19 (UniProt P15391 20-291, limits assumed)
T1 construct: also called Cluster of Differentiation 19; B-lymphocyte antigen CD19
T1 sequence (looked up): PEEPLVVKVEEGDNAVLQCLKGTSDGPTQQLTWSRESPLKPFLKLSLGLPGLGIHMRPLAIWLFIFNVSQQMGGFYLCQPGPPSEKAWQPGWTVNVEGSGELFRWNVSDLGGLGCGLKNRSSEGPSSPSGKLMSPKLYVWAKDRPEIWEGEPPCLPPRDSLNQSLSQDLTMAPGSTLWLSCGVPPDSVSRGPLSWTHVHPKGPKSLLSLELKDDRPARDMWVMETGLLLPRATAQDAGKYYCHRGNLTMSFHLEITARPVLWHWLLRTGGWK

T2: CD19 on CD19+ cells (Raji cells; NALM-6 tumor cells) (UniProt P15391 20-556, limits assumed)
T2 construct: whole, on cells; Endogenous CD19 on tumor cell lines; also called CD19+ Raji cells
T2 sequence (looked up): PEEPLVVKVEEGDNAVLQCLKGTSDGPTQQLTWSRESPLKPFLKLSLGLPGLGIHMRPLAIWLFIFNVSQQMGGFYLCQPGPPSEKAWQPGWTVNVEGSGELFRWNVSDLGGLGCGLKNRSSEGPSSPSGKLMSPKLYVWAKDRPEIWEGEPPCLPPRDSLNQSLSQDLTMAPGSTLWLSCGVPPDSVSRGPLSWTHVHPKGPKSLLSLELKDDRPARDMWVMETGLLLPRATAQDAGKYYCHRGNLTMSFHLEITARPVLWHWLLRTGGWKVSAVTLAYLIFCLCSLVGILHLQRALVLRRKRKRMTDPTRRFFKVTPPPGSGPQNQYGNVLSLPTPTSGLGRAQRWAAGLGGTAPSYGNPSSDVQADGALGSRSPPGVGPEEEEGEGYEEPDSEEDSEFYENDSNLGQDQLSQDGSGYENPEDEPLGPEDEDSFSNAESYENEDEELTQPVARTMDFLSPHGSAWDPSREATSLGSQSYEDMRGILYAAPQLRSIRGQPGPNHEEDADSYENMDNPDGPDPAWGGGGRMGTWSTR

B1: CD19 Binder 2 (scFv, V domains shown)
VH: EVHLVESGGGLVQPGGSLRLSCAASGFTFSDYYMSWIRQAPGKGLEWVSYISSSGSTTYYADSVKGRFTISRDNAKNSLYLQMNSLRAEDTAVYYCARVEGWSLLDYWGQGTLVTVSS
VL: QSVLTQPPSVSAAPGQKVTMSCSGSSSNIGNNYVSWYQQLPGTAPKLLIYDNNKRPSGIPDRFSGSKSGTSATLGITGLQTGDEADYYCGTWDSSLGAVVFGGGTKVTVL
B2: CD19 Binder 3 (scFv, V domains shown)
VH: EVQLVQSGAEVKKPGESLKISCKGSGYSFTSYWIGWVRQMPGKGLEWMGIIYPGDSDTRYSPSFQGQVTISADKSISTAYLQWSSLKASDTAMYYCARLPFVGATTGGFDYWGQGTLVTVSS
VL: QSVVTQPASVSGSPGQSITISCTGTSSDVGGYNYVSWYQQHPGKAPKLVIYEVSNRPSGVSNRFSGSKSGNTASLTISGLQAEDEADYYCSSYTSSSTLVFGGGTKLTVL
B3: CD19 Binder 1 (scFv, V domains shown)
VH: EVQLVESGGGLIQPGGSLRLSCAASGFTVSSNYMSWVRQAPGKGLEWVSVIYSGGSTYYADSVKGRFTISRDNSKNTLYLQMNSLRAEDTAVYYCARDGGLDTLYGMDVWGQGTTVTVSS
VL: QSVVTQPPSVSGAPGQRVTISCTGSSSNIGAGYDVHWYQQLPGTAPKLLIYGNSNRPSGVPDRFSGSKSGTSASLAITGLQAEDEADYYCQSYDSSLSGSYVFGTGTKVTVL
B4: CAR 400 (VH-VL) CD19 chimeric antigen receptor (receptor)
chain: EVQLVQSGAEVKKPGESLKISCKGSGYSFTSYWIGWVRQMPGKGLEWMGIIYPGDSDTRYSPSFQGQVTISADKSISTAYLQWSSLKASDTAMYYCARLPFVGATTGGFDYWGQGTLVTVSSGGGGSGGGGSGGGGSQSVVTQPASVSGSPGQSITISCTGTSSDVGGYNYVSWYQQHPGKAPKLVIYEVSNRPSGVSNRFSGSKSGNTASLTISGLQAEDEADYYCSSYTSSSTLVFGGGTKLTVLTTTPAPRPPTPAPTIASQPLSLRPEACRPAAGGAVHTRGLDFACDIYIWAPLAGTCGVLLLSLVITLYCKRGRKKLLYIFKQPFMRPVQTTQEEDGCSCRFPEEEEGGCELRVKFSRSADAPAYQQGQNQLYNELNLGRREEYDVLDKRRGRDPEMGGKPRRKNPQEGLYNELQKDKMAEAYSEIGMKGERRRGKGHDGLYQGLSTATKDTYDALHMQALPPR

Experiments:
recombinant CD19 [1] = target: T1, recombinant CD19; assay: ELISA on recombinant CD19, OD at 405 nm
[2] = target: T2, CD19 on CD19+ cells (Raji cells; NALM-6 …); assay: flow cytometry, binder incubated with CD19+ Raji cells
recombinant CD19 [3] = target: T1, recombinant CD19; assay: ELISA on recombinant CD19, OD at 405 nm against antibody concentration
recombinant CD19 [4] = target: T1, recombinant CD19; assay: as above; remark: listed apart in the source
recombinant CD19 [5] = target: T1, recombinant CD19; assay: as above; remark: listed apart in the source
[6] = target: T2, CD19 on CD19+ cells (Raji cells; NALM-6 …); assay: cell-based or functional assay

| Binder | EC50 (recombinant CD19 [1]) [µg/mL] | EC50 [2] [µg/mL] | EC50 (read off the curve) (recombinant CD19 [3]) [µg/mL] | EC50 (read off the curve) (recombinant CD19 [4]) [µg/mL] | EC50 (read off the curve) (recombinant CD19 [5]) [µg/mL] | NALM-6 survival percentage after 24-hour co-culture with hypoimmune CAR T cells, E:T ratio of 1:32 (luciferase read-out) [6] [%] |
| --- | --- | --- | --- | --- | --- | --- |
| B1 | 0.27 | 0.073 | ~0.3 |  |  |  |
| B2 | 0.044 | 1.2 |  | ~0.04 |  |  |
| B3 | 0.099 | 0.041 |  |  | ~0.1 |  |
| B4 |  |  |  |  |  | < 20 |
